The results in this text go back to PMC8548392, “Miniature type V-F CRISPR-Cas nucleases enable targeted DNA modification in cells” (Nature Communications, 2021).

The term stoichiometry N denotes a count of units in the complex or per binding partner.

Data set [1] addresses AsCas12f1 (Acidibacillus sulfuroxidans Cas12f1) (Acidibacillus sulfuroxidans). Kind of data set: mass photometry; binary complex with gRNA; 1 µM Cas12f1 protein and 500 nM gRNA in complex assembly buffer (10 mM Tris-HCl pH 7.5, 100 mM NaCl, 1 mM EDTA, 1 mM DTT), 30 min at 37 °C, then diluted 1:10.
Data set [2] has the same target. Kind of data set: mass photometry; ternary complex with gRNA and dsDNA target; 200 nM Cas12f1 RNP and 25 nM DNA in binding buffer (40 mM Tris-HAc pH 8.4, 5 mM Mg acetate), 30 min at 45 °C, then diluted 1:10.
Data set [3] deals with T1, dSpCas12f1 (Syntrophomonas palmitatica, UniProt P0DW62 1-497, D228A).
T1 sequence: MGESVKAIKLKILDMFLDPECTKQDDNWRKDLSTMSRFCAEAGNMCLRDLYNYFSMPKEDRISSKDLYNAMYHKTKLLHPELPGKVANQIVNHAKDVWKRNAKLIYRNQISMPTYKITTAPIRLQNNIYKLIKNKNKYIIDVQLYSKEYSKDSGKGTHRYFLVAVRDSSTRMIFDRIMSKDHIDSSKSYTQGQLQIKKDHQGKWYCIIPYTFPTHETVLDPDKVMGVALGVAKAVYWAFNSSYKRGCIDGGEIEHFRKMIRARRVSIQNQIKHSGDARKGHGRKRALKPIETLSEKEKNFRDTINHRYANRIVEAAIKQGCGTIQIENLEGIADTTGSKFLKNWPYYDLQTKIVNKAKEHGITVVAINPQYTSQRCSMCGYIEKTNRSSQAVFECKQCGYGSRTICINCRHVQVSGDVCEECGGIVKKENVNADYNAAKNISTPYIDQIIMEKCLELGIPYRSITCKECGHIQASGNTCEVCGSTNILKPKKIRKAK
The data set can be described thus: mass photometry; binary complex 179 kDa, 2:1 protein:gRNA; EMSA: 40 mM Tris, 20 mM acetic acid pH 8.4, 1 mM EDTA, 0.1 mg/ml BSA, 10% glycerol, 5 mM Mg acetate, 1 nM DNA, 0-250 nM RNP, 30 min at room temperature or as indicated. Mass photometry: binary in 10 mM Tris-HCl pH 7.5, 100 mM NaCl, 1 mM EDTA, 1 mM DTT, 37 C; ternary in 40 mM Tris-acetate pH 8.4, 5 mM Mg acetate, 45 C. The conditions noted are these: protein: recombinant; tags: 10xHis-MBP-TEV tag removed; chain copies: 2; single chain, folded.

Data set [4] concerns the molecule itself. Kind of data set: mass photometry; binary complex with gRNA; 1 µM Cas12f1 protein and 500 nM gRNA in complex assembly buffer (10 mM Tris-HCl pH 7.5, 100 mM NaCl, 1 mM EDTA, 1 mM DTT), 30 min at 37 °C, then diluted 1:10.
Data set [5] deals with T1, dSpCas12f1. Kind of data set: mass photometry; ternary 2:1:1, 5 mM Mg2+, incubated at 45 C; EMSA: 40 mM Tris, 20 mM acetic acid pH 8.4, 1 mM EDTA, 0.1 mg/ml BSA, 10% glycerol, 5 mM Mg acetate, 1 nM DNA, 0-250 nM RNP, 30 min at room temperature or as indicated. Mass photometry: binary in 10 mM Tris-HCl pH 7.5, 100 mM NaCl, 1 mM EDTA, 1 mM DTT, 37 C; ternary in 40 mM Tris-acetate pH 8.4, 5 mM Mg acetate, 45 C. Conditions: protein: recombinant; tags: 10xHis-MBP-TEV tag removed; chain copies: 2; label: 32P 5'-end in EMSA; guide RNA + DNA duplex. (In general: A gel shift assay detects complexes by their altered migration in electrophoresis.)

For data set [6], the target named is T2, dAsCas12f1 (Acidibacillus sulfuroxidans, UniProt A0A2U3D0N8 1-422, D225A).
T2 sequence: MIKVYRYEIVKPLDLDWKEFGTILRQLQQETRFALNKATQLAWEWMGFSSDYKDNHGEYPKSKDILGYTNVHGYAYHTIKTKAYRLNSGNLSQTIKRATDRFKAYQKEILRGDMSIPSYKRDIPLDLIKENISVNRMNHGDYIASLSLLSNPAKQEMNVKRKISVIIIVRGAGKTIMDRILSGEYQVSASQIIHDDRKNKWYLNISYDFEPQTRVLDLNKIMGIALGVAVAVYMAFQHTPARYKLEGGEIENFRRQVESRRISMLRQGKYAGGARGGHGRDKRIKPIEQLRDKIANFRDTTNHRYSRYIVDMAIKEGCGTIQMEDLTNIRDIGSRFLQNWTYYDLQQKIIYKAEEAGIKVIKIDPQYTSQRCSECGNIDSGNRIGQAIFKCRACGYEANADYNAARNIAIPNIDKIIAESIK
Kind of data set: EMSA; 5 mM Mg2+, room temperature; EMSA: 40 mM Tris, 20 mM acetic acid pH 8.4, 1 mM EDTA, 0.1 mg/ml BSA, 10% glycerol, 5 mM Mg acetate, 1 nM DNA, 0-250 nM RNP, 30 min at room temperature or as indicated. Mass photometry: binary in 10 mM Tris-HCl pH 7.5, 100 mM NaCl, 1 mM EDTA, 1 mM DTT, 37 C; ternary in 40 mM Tris-acetate pH 8.4, 5 mM Mg acetate, 45 C. The conditions noted are these: protein: recombinant; tags: 10xHis-MBP-TEV tag removed; chain copies: 2; label: 32P 5'-end; guide RNA + ssDNA.

Data set [7] concerns the target T2, dAsCas12f1. Kind of data set: mass photometry; ternary 2:1:1, 5 mM Mg2+, incubated at 45 C; EMSA: 40 mM Tris, 20 mM acetic acid pH 8.4, 1 mM EDTA, 0.1 mg/ml BSA, 10% glycerol, 5 mM Mg acetate, 1 nM DNA, 0-250 nM RNP, 30 min at room temperature or as indicated. Mass photometry: binary in 10 mM Tris-HCl pH 7.5, 100 mM NaCl, 1 mM EDTA, 1 mM DTT, 37 C; ternary in 40 mM Tris-acetate pH 8.4, 5 mM Mg acetate, 45 C. The conditions noted are these: protein: recombinant; tags: 10xHis-MBP-TEV tag removed; chain copies: 2; label: 32P 5'-end in EMSA; guide RNA + DNA duplex.

For data set [8], the target named is T1, dSpCas12f1. The data set can be described thus: EMSA; 5 mM Mg2+, room temperature; EMSA: 40 mM Tris, 20 mM acetic acid pH 8.4, 1 mM EDTA, 0.1 mg/ml BSA, 10% glycerol, 5 mM Mg acetate, 1 nM DNA, 0-250 nM RNP, 30 min at room temperature or as indicated. Mass photometry: binary in 10 mM Tris-HCl pH 7.5, 100 mM NaCl, 1 mM EDTA, 1 mM DTT, 37 C; ternary in 40 mM Tris-acetate pH 8.4, 5 mM Mg acetate, 45 C. The conditions noted are these: protein: recombinant; tags: 10xHis-MBP-TEV tag removed; chain copies: 2; label: 32P 5'-end; guide RNA + ssDNA.

“AsCas12f1 (Acidibacillus sulfuroxidans Cas12f1) (from UniProt A0A2U3D0N8 1-422) (enzyme)”: the stoichiometry N in data set [1] and in data set [2] was 2 throughout.

B1: SpCas12f1 sgRNA T1, 18 nt spacer (structured_RNA)
RNA: GGGAUUUACUCUGUUUCGCGCGCCAGGGCAGUUAGGUGCCCUAAAAGAGCGAAGUGGCCGAAAGGAAAGGCUAACGCUUCUCUAACGCUACGGCGACCUUGGCGAAAUGCCAUCAAUACCACGCGGCCCGAAAGGGUUCGCGCGAAACUGAGUAAUGAAAGUCGCAUCUUGCGUAAGCGCGUGGAUUGAAACAGUUGACCCAACGUCGCC
B1: the binding result in the data set with dSpCas12f1 [3] is given as “binds”.

B2: Nuclease inactivated or dead (d) SpCas12f1 (D228A) (enzyme, Syntrophomonas palmitatica, UniProt P0DW62 1-497, looked up)
chain: MGESVKAIKLKILDMFLDPECTKQDDNWRKDLSTMSRFCAEAGNMCLRDLYNYFSMPKEDRISSKDLYNAMYHKTKLLHPELPGKVANQIVNHAKDVWKRNAKLIYRNQISMPTYKITTAPIRLQNNIYKLIKNKNKYIIDVQLYSKEYSKDSGKGTHRYFLVAVRDSSTRMIFDRIMSKDHIDSSKSYTQGQLQIKKDHQGKWYCIIPYTFPTHETVLDPDKVMGVALGVAKAVYWAFNSSYKRGCIDGGEIEHFRKMIRARRVSIQNQIKHSGDARKGHGRKRALKPIETLSEKEKNFRDTINHRYANRIVEAAIKQGCGTIQIENLEGIADTTGSKFLKNWPYYDLQTKIVNKAKEHGITVVAINPQYTSQRCSMCGYIEKTNRSSQAVFECKQCGYGSRTICINCRHVQVSGDVCEECGGIVKKENVNADYNAAKNISTPYIDQIIMEKCLELGIPYRSITCKECGHIQASGNTCEVCGSTNILKPKKIRKAK
notes: SpCas12f1, type V-F CRISPR-Cas nuclease of Syntrophomonas palmitatica, 497 aa, with D228A in the RuvC active site; The tag was removed at a TEV site (ENLYFQS), so a residue of the site may remain at the N-terminus; also called dCas12f1; source: E. coli Arctic Express (DE3), purified (Ni2+ HiTrap chelating, heparin, TEV cleavage, heparin); not shown: 10xHis, N-terminal, cleaved; MBP, N-terminal, …
For the molecule B2, in data set [4], the “stoichiometry N” value amounted to 2.

B3: Sp sgRNA (18 nt spacer) + dsDNA target with PAM (mixed)
DNA 1: GCACCTTACTGCAAGGTAGCCACGTTCAGTTGACCCAACGTCGCCGGCGTGCACAATCTAGATGCATCAGCTGC
DNA 2: GCAGCTGATGCATCTAGATTGTGCACGCCGGCGACGTTGGGTCAACTGAACGTGGCTACCTTGCAGTAAGGTGC
B3: the binding result with dSpCas12f1 [5] is listed as “binds”.

B4: As sgRNA + ssDNA target strand (mixed)
DNA: GCAGCTGATGCATCTAGATTGTGCACGCCGGCGACGTTGGGTCAACTTAAATACGCTACCTTGCAGTAAGGTGC
As for B4, in the data set with dAsCas12f1 [6], the binding result is listed as “binds”.

B5: As sgRNA + dsDNA target with PAM (mixed)
DNA 1: GCACCTTACTGCAAGGTAGCGTATTTAAGTTGACCCAACGTCGCCGGCGTGCACAATCTAGATGCATCAGCTGC
DNA 2: GCAGCTGATGCATCTAGATTGTGCACGCCGGCGACGTTGGGTCAACTTAAATACGCTACCTTGCAGTAAGGTGC
Consider B5, for which the binding result with dAsCas12f1 [7] is reported as “binds”.

B6: Sp sgRNA (18 nt spacer) + ssDNA target strand (mixed)
DNA: GCAGCTGATGCATCTAGATTGTGCACGCCGGCGACGTTGGGTCAACTGAACGTGGCTACCTTGCAGTAAGGTGC
In the case of B6, the binding result with dSpCas12f1 [8] is on record as “binds”.
